Source: patent EP2341079A1 (Institut Pasteur, dated 2011)

Experiments:
streptavidin = streptavidin (UniProt P22629 37-163, limits assumed); assay: ELISA (data not shown)
neutravidin = neutravidin (UniProt P02701 25-152); assay: ELISA (data not shown)
[1] = target: T1, hIgG (IgG pool from human serum containing hIgG1, hIgG2, hIgG3, hIgG4; Fluka reference number 56834); assay: SPR (BIAcore 3000), hIgG on CM5 chip, binder injected, 1:1 global fit
T1 construct: Polyclonal mixture from human serum; also called human IgG; Immunoglobulin G from human serum

[2] = target: T2, hIgG1 (Sigma-Aldrich reference number I5029) (human, UniProt P01857-1 1-330 = IgG part); assay: SPR, hIgG1 immobilised at low density, C3 injected 16-1000 nM, global fit (Fig. 6)
T2 construct: Purified subclass, bought; also called Human IgG1; human IgG1 subclass
T2 sequence (P01857 other isoform, or with tags, fused parts or gaps): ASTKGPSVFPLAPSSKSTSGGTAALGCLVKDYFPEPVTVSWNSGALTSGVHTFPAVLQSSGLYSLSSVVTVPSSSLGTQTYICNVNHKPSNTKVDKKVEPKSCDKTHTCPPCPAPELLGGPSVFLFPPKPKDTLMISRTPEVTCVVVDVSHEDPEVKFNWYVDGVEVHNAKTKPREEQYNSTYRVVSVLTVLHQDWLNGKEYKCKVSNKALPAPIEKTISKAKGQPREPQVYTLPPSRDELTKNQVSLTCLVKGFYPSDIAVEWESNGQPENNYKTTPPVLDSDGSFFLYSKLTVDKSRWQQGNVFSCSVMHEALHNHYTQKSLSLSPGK

neutravidin, sequence (P02701 25-152): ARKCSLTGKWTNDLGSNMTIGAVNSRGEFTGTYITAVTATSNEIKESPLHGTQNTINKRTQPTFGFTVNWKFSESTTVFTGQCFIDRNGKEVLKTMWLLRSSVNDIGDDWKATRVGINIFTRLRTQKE
streptavidin, sequence (P22629 37-163 limits assumed): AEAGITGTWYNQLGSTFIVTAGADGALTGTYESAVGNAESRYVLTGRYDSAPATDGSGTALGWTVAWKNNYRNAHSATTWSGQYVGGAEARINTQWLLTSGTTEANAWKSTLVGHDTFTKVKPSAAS

B1: C3 binder (designed binder)
chain: SVKVKFLLNGEEKEVDTSKIRDVCRQGKNVKFLYNDNGKYGAGNVDEKDAPKELLDMLARAEREKK
notes: Sac7d variant made with a His-tag in E. coli; monomeric by gel filtration; Used free, biotinylated on a streptavidin chip, labelled with AlexaFluor 680, or NHS-coupled to agarose, as said under assay; also called clone C3; not shown: RGS-(His)6 tag from vector pFP1001 (pQE30 derivative)
For B1, the binding result (streptavidin) was “no binding”, the binding result (neutravidin) was “no binding” and the Kd [1] was 74 nM. For the same binder, the koff [1] was 0.066 s⁻¹, the kon [1] was 890000 M⁻¹ s⁻¹ and the Kd [2] was 94 nM. The koff [2] was 0.051 s⁻¹ and the kon [2] was 540000 M⁻¹ s⁻¹.
